We go through 9 molecules from US20190367631A1 (Regeneron, published 2019).

The target in test [1] is T1, human MSR1 extracellular domain expressed with a N-terminal nonahistidine tag (human, UniProt P21757 77-451).
T1 construct: extracellular domain; also called His9-hMSR1; His-hMSR1
T1 sequence: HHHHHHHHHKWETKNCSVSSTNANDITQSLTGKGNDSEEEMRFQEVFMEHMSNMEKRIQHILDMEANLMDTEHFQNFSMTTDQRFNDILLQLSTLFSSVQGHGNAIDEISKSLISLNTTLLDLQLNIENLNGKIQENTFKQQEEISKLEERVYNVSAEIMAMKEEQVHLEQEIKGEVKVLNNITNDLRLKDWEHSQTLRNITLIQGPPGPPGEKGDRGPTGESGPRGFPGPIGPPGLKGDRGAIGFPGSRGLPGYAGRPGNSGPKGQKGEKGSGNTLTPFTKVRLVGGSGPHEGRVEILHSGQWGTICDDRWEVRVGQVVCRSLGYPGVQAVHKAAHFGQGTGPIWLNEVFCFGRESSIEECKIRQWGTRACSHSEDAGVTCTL
Nature of the test: competition ELISA, plate-coated His9-hMSR1; 100 nM antibody, competitor ligand Ac-LDL.
Method: (§1) Buffer alone was also added to wells on each coat. […] This assay was conducted in four different assay runs.
(§2) Data analysis was performed using a sigmoidal dose-response model within Prism™ software (GraphPad).

Test [2] has as its target T1, human MSR1 extracellular domain …. Nature of the test: competition ELISA, plate-coated His9-hMSR1; 300 nM antibody, competitor ligand biot-AGE-BSA. In general terms: An ELISA detects its analyte on a solid surface through an enzyme-linked reagent.
Method: as §1, §2
For test [3] the target is unchanged. Briefly: competition ELISA, plate-coated His9-hMSR1; 500 nM antibody, competitor ligand 5 nM Ox-LDL.
Method: as §1, §2
For test [4], the target named is T2, human MSR1 extracellular domain expressed with a N-terminal nonahistidine tag (His9-hMSR1); R&D Systems, Cat … (human, UniProt P21757 77-451).
T2 construct: extracellular domain; also called His-hMSR1; 9xHis-hMSR1; not shown: N-terminal nonahistidine tag
T2 sequence (looked up): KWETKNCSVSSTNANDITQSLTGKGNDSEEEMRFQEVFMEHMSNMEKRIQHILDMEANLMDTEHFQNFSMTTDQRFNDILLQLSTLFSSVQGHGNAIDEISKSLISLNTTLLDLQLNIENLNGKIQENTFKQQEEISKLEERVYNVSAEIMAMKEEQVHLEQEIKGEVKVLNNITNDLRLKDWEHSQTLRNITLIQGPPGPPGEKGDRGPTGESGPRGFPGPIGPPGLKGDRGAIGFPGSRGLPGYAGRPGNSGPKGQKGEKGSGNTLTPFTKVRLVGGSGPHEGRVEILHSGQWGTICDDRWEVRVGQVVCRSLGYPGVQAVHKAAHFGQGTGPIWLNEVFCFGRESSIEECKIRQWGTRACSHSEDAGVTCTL
Nature of the test: BLI Octet, 25 C, antibody captured. A general note: Biolayer interferometry detects binding as a change in optical thickness at a sensor tip.

In test [5] the target is T3, monkey MSR1 extracellular domain expressed with a N-terminal hexahistidine-myc-myc tag (HMM-mfMSR1) (monkey (Macaca fascicularis)).
T3 chain: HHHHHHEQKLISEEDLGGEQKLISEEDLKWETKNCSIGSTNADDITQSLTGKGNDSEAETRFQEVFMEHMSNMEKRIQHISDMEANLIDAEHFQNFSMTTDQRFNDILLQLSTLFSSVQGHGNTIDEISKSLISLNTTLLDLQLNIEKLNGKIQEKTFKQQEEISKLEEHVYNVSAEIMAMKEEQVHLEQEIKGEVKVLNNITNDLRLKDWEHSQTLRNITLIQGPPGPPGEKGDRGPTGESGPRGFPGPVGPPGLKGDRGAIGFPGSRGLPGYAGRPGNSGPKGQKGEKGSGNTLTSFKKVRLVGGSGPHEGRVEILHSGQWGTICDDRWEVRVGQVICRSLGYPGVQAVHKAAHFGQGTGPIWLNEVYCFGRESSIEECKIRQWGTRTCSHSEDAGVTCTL
Nature of the test: BLI Octet, 25 C, antibody captured.
Method: (§3) Binding affinities and kinetic constants of human anti-MSR1 antibodies for different MSR1 reagents were determined using a real time, label-free bio-layer interferometry assay on an OCTET® HTX biosensor platform (Pall FortéBio Corp., Menlo Park, Calif.). The experiment was performed at 25° C. in 10 mM HEPES, 150 mM NaCl, 3 mM EDTA, 0.05% v/v Surfactant Tween-20, and 1 mg/mL BSA, pH7.4 (HBS-EBT) buffer with the plate shaking at the speed of 1000 rpm. […] The anti-MSR1 monoclonal antibodies were captured by dipping either anti-human Fc (AHC) or anti-mouse Fc (AMC) Octet biosensors in wells containing 5 pg/mL or 10 pg/mL of anti-MSR1 monoclonal antibody for 45-90 seconds. […] The binding of different MSR1 reagents to the captured anti-MSR1 monoclonal antibody was measured for 4 minutes and the dissociation of monoclonal antibody bound MSR1 reagent was monitored for 8-10 minutes in HBS-EBT buffer.
(§4) The association rate (kₐ) and dissociation rate (kd) were determined by fitting the real-time binding sensorgrams to a 1:1 binding model with mass transport limitation using Scrubber 2.0c curve-fitting software. Binding dissociation equilibrium constant (KD) and dissociative half-life (t½) were calculated from the kinetic rates as:

The target of test [6] is T4, mouse MSR1 extracellular domain expressed with a N-terminal nonahistidine tag (His9-mMSR1); R&D Systems, Cat … (mouse, UniProt P30204 79-458).
T4 construct: extracellular domain; not shown: N-terminal nonahistidine tag
T4 sequence (looked up): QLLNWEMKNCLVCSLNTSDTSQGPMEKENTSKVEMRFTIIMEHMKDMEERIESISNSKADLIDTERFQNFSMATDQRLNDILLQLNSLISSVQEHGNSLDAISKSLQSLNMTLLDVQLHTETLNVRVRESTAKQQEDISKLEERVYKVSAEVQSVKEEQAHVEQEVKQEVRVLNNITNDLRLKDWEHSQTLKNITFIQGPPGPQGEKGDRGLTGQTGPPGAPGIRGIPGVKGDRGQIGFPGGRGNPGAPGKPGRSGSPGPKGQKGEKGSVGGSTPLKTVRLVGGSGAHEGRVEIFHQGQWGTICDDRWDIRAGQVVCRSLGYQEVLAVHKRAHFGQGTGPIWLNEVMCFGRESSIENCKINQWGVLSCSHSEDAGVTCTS
Briefly: BLI Octet, 25 C, antibody captured.

Test [7] deals with T1, human MSR1 extracellular domain …. Nature of the test: competition ELISA, plate-coated His9-hMSR1; 500 nM antibody, competitor ligand 10 nM Ox-LDL.
Method: as §1, §2
Test [8] has as its target T4, mouse MSR1 extracellular domain …. Briefly: BLI Octet, 25 C, antibody captured; kd fixed, no dissociation seen.
Method: as §3, §4
The target in test [9] is T2, human MSR1 extracellular domain …. Nature of the test: SPR Biacore, 37 C, antibody captured; kd fixed, no dissociation seen. For orientation: In SPR one partner is held on a chip, and binding of the other changes the refractive index at the surface.
Method: (§5) Binding affinities and kinetic constants of human anti-MSR1 antibodies for different MSR1 reagents were determined by real-time surface plasmon resonance (Biacore 4000). All binding studies were performed in 10 mM HEPES, 150 mM NaCl, 3 mM EDTA, and 0.05% v/v Surfactant Tween-20, pH 7.4 (HBS-ET) running buffer at 25° C. and 37° C.
as §4
For test [10], the target named is T3, monkey MSR1 extracellular domain …. Described as above.
Method: as §5, §4
Test [11] concerns the target T2, human MSR1 extracellular domain …. Nature of the test: SPR Biacore, 25 C, antibody captured; kd fixed, no dissociation seen.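 Also: rates from 1:1 fit with mass transport limitation of real-time sensorgrams, HEPES-buffered saline with EDTA and Tween-20 at pH 7.4, KD and t½ derived from the kinetic rates.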
Method: as §5, §4
The target of test [12] is T3, monkey MSR1 extracellular domain …. The test is described as above.
Method: as §5, §4
Test [13] shares this target. Nature of the test: SPR Biacore, 25 C, antibody captured.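 Also: rates from 1:1 fit with mass transport limitation of real-time sensorgrams, HEPES-buffered saline with EDTA and Tween-20 at pH 7.4, KD and t½ derived from the kinetic rates.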

Positions count from the first letter of the chain named. Names and notes keep the numbering of the source.

B1: H2aM21229N (antibody, mouse IgG2a, V domains shown)
VH: EVQLVESGGGLVKPGGSLRLSCAASGFTFSRYSMNWVRQAPGKGLEWVSSISSSSSYIYYGDTVKGRFTISRDNAKKSLYLQMNSLRAEDTAVYYCVRDRGQLVLYFDYWGQGTLVTVSS
VL: DIQMTQSPASLSTSIRDRVTITCRASLSISSFLNWFQQRPGKAPKLLIYVASNLQSGVPSRFSDSGSGTDFTLTISSLQPEDFATYYCQQNYSTPPITFGQGTRLEIK
notes: Human variable domains with mouse IgG2a Fc
Turning to B1, the “% Blocking” value in test [1] was -11%; in [2] it was 3%; in [3] it was 38%.

B2: H2aM21229N (antibody, V domains shown)
VH: B1 VH
VL: B1 VL
notes: as for B1
Regarding B2, in test [4], the Kd – broadly, a measure of binding affinity in units of concentration – came out at 0.7 nM; the koff – broadly, a measure of how fast the partners let go of each other – amounted to 0.00021 s⁻¹; the kon (in general, the second-order rate constant of association) amounted to 300000 M⁻¹ s⁻¹; the t½ (as a rule, the time needed for the level to fall by half in the phase considered) stood at 0.917 h. In test [5], this molecule showed a Kd of 16.4 nM, an off-rate (koff) of 0.00222 s⁻¹, a kon of 135000 M⁻¹ s⁻¹ and a t½ of 0.0833 h. For the same molecule, the binding result in [6] is on record as “no binding (tested: 100 nM)”.

B3: H1H21234N-N297Q (antibody, V domains shown)
VH: QVQLQESGPGLVKPSETLSLTCTVTGGSISRNYWSWIRQPPGKGLEWIGYIYYSGSIDYNPSLKSRVTISVDTSKNQFSLKLSSMTAADTAVYYCARDRWNWKYGMDVWGQGTTVIVSS
VL: EIVLTQSPGTLSLSPGERATLSCRASQTVRNNYLAWYHQKPGQAPRLLIYGASSRATGIPDRFSGSGSGTDFTLTISRLEPEDFTVYYCHQYGNSPWTFGQGTKMEIKR
notes: Human IgG1 Fc with N297Q (EU numbering)
B3: the “% Blocking” value was 75% in test [1], 49% in test [7] and -27% in test [2].

B4: H1H21234N (antibody, V domains shown)
VH: B3 VH
VL: B3 VL
notes: Original human IgG1 Fc (no N297 mutation)
As for B4, the Kd in test [8] was no more than 1.09 nM; in test [9] it was 0.0148 nM; in test [10], 0.0138 nM; in test [11], no more than 0.0166 nM; in test [12] it was no more than 0.0298 nM. The koff in test [8] is no more than 5e-05 s⁻¹; in test [9], no more than 1e-05 s⁻¹; in [10] it was no more than 1e-05 s⁻¹; in [11], no more than 1e-05 s⁻¹; in [12], no more than 1e-05 s⁻¹. In addition, the kon in test [8] worked out at 46000 M⁻¹ s⁻¹; in test [9], 676000 M⁻¹ s⁻¹; in [10], 726000 M⁻¹ s⁻¹; in test [11], 604000 M⁻¹ s⁻¹; in [12] it was 336000 M⁻¹ s⁻¹. The t½ is 3.85 h in test [8]; 19.2 h in test [9]; 19.2 h in test [10]; 19.2 h in test [11]; 19.2 h in test [12].

B5: H1H21234N (antibody, V domains shown)
VH: B3 VH
VL: B3 VL
notes: Original human IgG1 Fc
Take B5: the “% Blocking” value in test [1] came out at 70%; in test [7], 98%; in [2], 21%.

B6: H1H21234N-N297Q (antibody, V domains shown)
VH: B3 VH
VL: B3 VL
notes: Human IgG1 Fc with N297Q point mutation (EU numbering)
In the case of B6, the Kd was 0.0466 nM in test [13]; no more than 1.31 nM in [8]; 0.0127 nM in [9]; 0.0133 nM in [10]; no more than 0.0201 nM in test [11]. In addition, the koff is 1.95e-05 s⁻¹ in test [13]; no more than 5e-05 s⁻¹ in test [8]; no more than 1e-05 s⁻¹ in [9]; no more than 1e-05 s⁻¹ in [10]; no more than 1e-05 s⁻¹ in test [11]. For the same molecule, the kon in [13] amounted to 408000 M⁻¹ s⁻¹; in test [8] it was 38200 M⁻¹ s⁻¹; in [9], 787000 M⁻¹ s⁻¹; in test [10] it was 750000 M⁻¹ s⁻¹; in test [11], 497000 M⁻¹ s⁻¹. Also, the t½ in test [13] is 9.88 h; in [8] it was 3.85 h; in test [9] it was 19.2 h; in [10] it was 19.2 h; in test [11], 19.2 h.

B7: H2aM25695N (antibody, mouse IgG2a, V domains shown)
VH: B3 VH with D58N, T73M, S83N, M85V
VL: B3 VL with N32S, T85A, H90Q, N94S, P96Y
notes: as for B1
Regarding B7, the “% Blocking” value in [1] came out at 65%; in test [7], 96%; in test [2] it was 16%.

B8: H2aM21235N (antibody, V domains shown)
VH: EVQLVESGGGLVQPGGSLRLSCAASGFTFSDHYMDWVRQAPGKGLEWVGRTRNKANSYTTEYAASVSGRFTISRDDSKNSLYLQMNSLKTEDTAVYYCTRAGIIGTLFDYWGQGTLVTVSS
VL: DIQMTQSPSSLSASVGDRVTITCRASQIIGRYLNWFQQKPGKVPKLLIYAASSLQRGVPSRFSGSGSGTDFTLTISSLQPEDFATYYCQQSYNTPPITFGQGTRLEIKR
notes: Human variable domains with mouse IgG2a Fc; tied by the numerical identifier
In test [4], B8 returned a Kd of 0.378 nM and a t½ of 4.2 h. Besides, in test [5], binding was characterised by a dissociation constant (Kd) of 0.612 nM and the t½ stood at 3.07 h. Also, in test [6], the binding result is reported as “no binding (tested: 100 nM)”.

B9: H2aM21228N (antibody, mouse IgG2a, V domains shown)
VH: VQLVESGGGLVQPGGSLRLSCAASGFTFSDHYMDWVRQAPGKGLEWVGRTRNKANSHTTEYAASVSGRFTISRDDSKNSLYLQMNSLKTEDTAVYYCTRAGIIGTLFDYWGQGTLVTVSS
VL: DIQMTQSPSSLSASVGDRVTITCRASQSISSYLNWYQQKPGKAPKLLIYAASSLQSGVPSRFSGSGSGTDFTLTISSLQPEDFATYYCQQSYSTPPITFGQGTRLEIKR
notes: as for B1
Take B9: the “% Blocking” value is -32% in test [1], -1% in test [2] and 41% in [3].
